From patent US20140369997A1, “Pharmaceutical composition for a foaming eye drop” (PASE, priority 2011, published 2014)

Assay: Foaming of eye drop solution containing a foaming agent mixed with gas
Assay type: physicochemical
Description: The preferred embodiment is a solution containing between 0.25%-5% of hydroxypropyl methylcellulose. This has been proven to produce a foam that is capable of holding enough gas to result in a 90% reduction in volume of the medication distributed in a drop. In other words the foam that is created is 90% gas and 10% liquid. The addition of hydroxypropyl methylcellulose is one of many ways that the pharmaceutical composition of the eye medication can be changed.
Any preferred additive should have properties similar to hydroxypropyl methylcellulose such that a large reduction in volume of liquid from the foamed form to the liquid form is obtained. The additive should be chosen to reduce the risk of eye irritation and to minimize any potential binding of the active ingredient. Hydroxypropyl methylcellulose is especially preferred because it is already known to be a safe ingredient to be applied to the eye as it is currently used in many eye drops to lubricate the eye. It also produces a more viscous solution which increases the retention time in the eye, thus giving the medication more time to be absorbed.

## albumin
Albumin concentration between 1%-25%
  consistency of foam produced: foam of the desired consistency
Tested as foaming agent
  foaming agent quality: excellent foaming agent
